Reference: paper PMC7082075
Values joined by “and” are separate entries in the source; they are usually repeats but may differ in a detail not shown here. Equal entries are not always repeated.

Assays:
[1] = target: SNX3-retromer complex (Retromer + SNX3), Q96QK1; assay: ITC; approximately 2–3 mM peptide titrated into SNX5^PX (300 μM) or the SNX3-retromer complex (10 μM Retromer + 100 μM SNX3); 100 mM HEPES pH 7.5, 300 mM NaCl, 2 mM βME, 25°C; one set of sites model (Fig 1D, 1E, 2B)
[2] = target: SNX3-retromer complex (retromer VPS35/VPS26/VPS29 with SNX3), Q96QK1; assay: ITC; Fig 1E: approximately 2–3 mM of peptides titrated into the SNX3-retromer complex (10 μM Retromer + 100 μM SNX3); 100 mM HEPES pH 7.5, 300 mM NaCl, 2 mM βME, 25°C; one set of sites model; single values of triplicates

| Binder | Kd [1] [µM] | Kd [2] |
| --- | --- | --- |
| AQPELYLLNTMDADSLVSR (modifications not checked) [DMT1-II peptide] | 110 |  |
| AQPELYLLNTMDADSLVSR (modifications not checked) [DMT1-II peptide (divalent metal transporter 1)] |  | 100 µM and 113 µM and 117 µM |
